Test results from IntAct's records for PubMed 21460856.
Values belong to the substance of their own block, whether it stands above or below them.

How the values were obtained:
[1] = biological target: PPP2R5C, Q13362-1
[2] = biological target: mdm2_human MDM2 (UniProt Q00987)
[3] = biological target: atm_human ATM (UniProt Q13315)
atm_human ATM, sequence (Q13315 whole entry): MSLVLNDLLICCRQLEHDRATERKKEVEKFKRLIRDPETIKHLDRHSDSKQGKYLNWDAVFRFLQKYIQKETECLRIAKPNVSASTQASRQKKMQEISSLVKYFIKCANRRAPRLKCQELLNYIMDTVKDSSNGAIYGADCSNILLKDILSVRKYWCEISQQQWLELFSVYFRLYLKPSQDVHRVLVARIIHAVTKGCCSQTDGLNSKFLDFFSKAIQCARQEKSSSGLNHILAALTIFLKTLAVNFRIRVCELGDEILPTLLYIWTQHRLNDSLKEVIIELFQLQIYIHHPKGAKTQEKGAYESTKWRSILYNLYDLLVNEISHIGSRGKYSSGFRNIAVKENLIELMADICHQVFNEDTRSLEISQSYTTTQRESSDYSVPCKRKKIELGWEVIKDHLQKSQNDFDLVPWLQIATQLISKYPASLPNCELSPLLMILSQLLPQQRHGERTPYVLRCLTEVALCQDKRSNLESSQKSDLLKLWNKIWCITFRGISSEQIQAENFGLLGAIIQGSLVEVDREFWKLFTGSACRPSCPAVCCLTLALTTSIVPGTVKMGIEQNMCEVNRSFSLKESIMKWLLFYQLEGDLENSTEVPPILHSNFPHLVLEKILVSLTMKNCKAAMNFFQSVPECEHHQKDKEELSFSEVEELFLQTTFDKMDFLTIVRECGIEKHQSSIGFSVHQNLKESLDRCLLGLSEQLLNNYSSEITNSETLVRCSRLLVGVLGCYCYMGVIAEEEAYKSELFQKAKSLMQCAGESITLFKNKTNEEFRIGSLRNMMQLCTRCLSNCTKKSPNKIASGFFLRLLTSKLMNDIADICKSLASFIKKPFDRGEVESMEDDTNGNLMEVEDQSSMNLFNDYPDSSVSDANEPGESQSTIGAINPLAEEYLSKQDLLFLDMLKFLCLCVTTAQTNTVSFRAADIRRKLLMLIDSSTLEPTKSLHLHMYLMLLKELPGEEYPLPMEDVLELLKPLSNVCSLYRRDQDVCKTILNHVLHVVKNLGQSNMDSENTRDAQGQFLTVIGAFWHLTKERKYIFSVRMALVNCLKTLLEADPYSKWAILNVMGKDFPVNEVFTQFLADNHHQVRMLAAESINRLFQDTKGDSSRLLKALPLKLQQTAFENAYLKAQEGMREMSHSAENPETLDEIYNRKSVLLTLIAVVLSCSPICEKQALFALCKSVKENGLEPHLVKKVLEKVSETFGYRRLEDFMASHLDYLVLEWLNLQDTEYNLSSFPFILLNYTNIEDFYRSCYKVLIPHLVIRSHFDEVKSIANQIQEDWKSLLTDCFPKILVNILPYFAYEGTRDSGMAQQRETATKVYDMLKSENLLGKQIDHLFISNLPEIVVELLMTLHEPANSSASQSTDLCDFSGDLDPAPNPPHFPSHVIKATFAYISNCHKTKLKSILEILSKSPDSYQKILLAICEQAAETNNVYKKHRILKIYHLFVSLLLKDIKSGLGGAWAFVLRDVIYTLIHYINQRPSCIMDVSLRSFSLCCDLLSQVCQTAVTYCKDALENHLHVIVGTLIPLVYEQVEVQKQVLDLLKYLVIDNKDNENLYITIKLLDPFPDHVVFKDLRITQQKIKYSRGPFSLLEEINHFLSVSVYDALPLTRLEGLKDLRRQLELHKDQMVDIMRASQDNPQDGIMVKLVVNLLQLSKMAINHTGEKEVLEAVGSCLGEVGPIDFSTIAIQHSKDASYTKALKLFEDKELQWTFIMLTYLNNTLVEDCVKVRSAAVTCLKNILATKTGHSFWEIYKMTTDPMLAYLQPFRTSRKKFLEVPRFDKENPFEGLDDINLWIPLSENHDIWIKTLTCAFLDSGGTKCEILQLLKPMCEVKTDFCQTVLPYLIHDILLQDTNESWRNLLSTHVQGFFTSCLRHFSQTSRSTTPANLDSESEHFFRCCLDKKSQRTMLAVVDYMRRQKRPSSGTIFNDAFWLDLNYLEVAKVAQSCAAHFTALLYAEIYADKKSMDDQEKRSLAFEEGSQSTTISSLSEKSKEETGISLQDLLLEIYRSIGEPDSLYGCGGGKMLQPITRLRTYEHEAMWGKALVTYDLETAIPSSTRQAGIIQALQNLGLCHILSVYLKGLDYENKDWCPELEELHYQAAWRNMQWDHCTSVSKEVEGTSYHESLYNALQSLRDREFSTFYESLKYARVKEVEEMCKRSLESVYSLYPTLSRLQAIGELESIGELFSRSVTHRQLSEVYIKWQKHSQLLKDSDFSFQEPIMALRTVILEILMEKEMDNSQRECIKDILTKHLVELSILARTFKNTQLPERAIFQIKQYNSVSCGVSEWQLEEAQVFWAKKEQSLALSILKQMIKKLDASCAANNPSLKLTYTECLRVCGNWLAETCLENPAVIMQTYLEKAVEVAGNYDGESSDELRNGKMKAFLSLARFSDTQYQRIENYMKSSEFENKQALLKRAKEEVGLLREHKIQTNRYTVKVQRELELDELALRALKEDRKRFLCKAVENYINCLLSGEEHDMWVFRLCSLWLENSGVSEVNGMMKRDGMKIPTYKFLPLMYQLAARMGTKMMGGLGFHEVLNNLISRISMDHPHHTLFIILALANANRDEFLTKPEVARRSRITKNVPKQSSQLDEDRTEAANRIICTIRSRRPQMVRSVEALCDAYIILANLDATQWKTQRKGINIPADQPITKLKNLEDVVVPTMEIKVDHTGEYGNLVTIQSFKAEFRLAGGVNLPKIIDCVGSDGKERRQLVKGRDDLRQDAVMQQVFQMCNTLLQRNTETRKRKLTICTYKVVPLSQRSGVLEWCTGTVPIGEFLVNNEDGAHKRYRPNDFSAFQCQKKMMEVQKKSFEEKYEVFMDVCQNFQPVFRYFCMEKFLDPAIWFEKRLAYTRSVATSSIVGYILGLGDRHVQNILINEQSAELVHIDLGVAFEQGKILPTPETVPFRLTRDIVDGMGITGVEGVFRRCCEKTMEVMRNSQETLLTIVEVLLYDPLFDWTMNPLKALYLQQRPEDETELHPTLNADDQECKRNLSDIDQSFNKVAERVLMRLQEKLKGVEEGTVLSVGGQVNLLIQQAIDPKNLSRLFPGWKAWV

mdm2_human MDM2, sequence (Q00987 whole entry, looked up): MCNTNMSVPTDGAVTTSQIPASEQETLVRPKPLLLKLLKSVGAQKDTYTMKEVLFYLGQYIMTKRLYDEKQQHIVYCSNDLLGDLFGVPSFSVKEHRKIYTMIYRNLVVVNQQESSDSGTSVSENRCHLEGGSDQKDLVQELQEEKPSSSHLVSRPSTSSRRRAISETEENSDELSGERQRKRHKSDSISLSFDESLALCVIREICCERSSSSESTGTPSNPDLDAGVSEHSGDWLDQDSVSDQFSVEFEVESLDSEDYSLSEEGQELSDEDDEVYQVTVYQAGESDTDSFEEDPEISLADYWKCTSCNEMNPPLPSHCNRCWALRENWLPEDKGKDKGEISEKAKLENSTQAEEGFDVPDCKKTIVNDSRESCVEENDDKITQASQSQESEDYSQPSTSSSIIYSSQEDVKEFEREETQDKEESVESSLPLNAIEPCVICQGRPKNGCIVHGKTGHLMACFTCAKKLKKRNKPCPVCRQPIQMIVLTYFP

- effect of a mutation on the interaction [1]: disrupting interaction
Substance: Serine-protein kinase ATM (Homo sapiens), Q13315 D2870A;N2875K

- effect of a mutation on the interaction [2]: disrupting interaction
Substance: Serine/threonine-protein phosphatase 2A 56 kDa regulatory subunit gamma isoform (Homo sapiens) (from UniProt Q13362) S520D

- effect of a mutation on the interaction [3]: disrupting interaction
Substance: Serine/threonine-protein phosphatase 2A 56 kDa regulatory subunit gamma isoform (Homo sapiens) (from UniProt Q13362-1) S520A
